Entries after “also recorded” stand apart in the source; their conditions may differ.
Experiments:
naïve mouse CD4 T cells = experiment: Expansion of anti-CD3 activated naïve CD4 T cells (total cell numbers, CTV dilution by flow cytometry); format: cell-based; conditions: for CD4 T cell expansion (total live cell number, dilution of cell division dyes): plate bound anti-CD3 10 μg/ml, titrated doses of soluble recombinant TNF, over 4 days
Method: (§1) T cells were isolated from pooled mouse lymph nodes (inguinal, axillary, brachial, superficial cervical and lumbar) and isolated using MACS negative selection kits for CD4+ or CD8+ T cells (Miltenyi Biotec, Auburn, Calif., USA). T cell purity was confirmed by flow cytometry following isolation. For all experiments, T cell purity was between 82.9-98.2%.
(§2) T cells were cultured in RPMI 1640 medium (Invitrogen) supplemented with non-essential amino acids, 1 mM Sodium-pyruvate, 10 mM HEPES, 100 U/ml Penicillin, 100 μg/ml Streptomycin (Invitrogen), 50 μM 2β-mercaptoethanol, 2 mM L-glutamine (Sigma) and 10% FCS (Sigma). Cells were incubated in a humidified environment at 37° C. in 5% CO2. For division tracking experiments, T cells were labelled with Cell Trace Violet (Invitrogen) according to the manufacturer's instructions. T cells were cultured in flat bottom tissue culture plates.
(§3) The following T cell stimulations were used: TCR was stimulated using 10 μg/ml plate bound anti-CD3 (clone 145-2c11, WEHI antibody facility, Australia) unless a different concentration was specified. Recombinant murine TNF was purchased from R&D Systems (Minneapolis, Minn., USA). Recombinant mIL-2 was purchased from Peprotech. Smac-mimetics were purchased from Sellekchem, MA. The TNFR2 agonist mSTAR was prepared according from HEK293 cells were transiently transfected and cells cultured for 5-7 days, supernatants were purified using anti-Flag affinity chromatography, and the concentrations of the recombinant proteins were determined compared to standard proteins.
Triplicate wells were harvested at each time point. To determine absolute cell numbers, the number of live cells per culture was estimated by reference to a known number of Calibrite beads (Becton Dickinson, San Jose, Calif.), added directly to cell culture before collecting. […]
To examine the role of TNFα in T cell co-stimulation, naïve CD4 T cells were isolated from C57Bl/6 mice and stimulated with a range of recombinant mouse TNF concentrations in the presence of T cell receptor (TCR) crosslinking via plate bound anti-CD3 stimulation. CD4 T cells were labelled with the cell division tracking dye cell trace violet (CTV) and the response measured daily over 96 hours by quantifying T cell expansion using flow cytometry.
To determine if the co-stimulation effect of TNF on T cells could be mimicked using an agonist specific for TNFR2, the response of naïve mouse CD4 T cells activated via TCR in the presence of recombinant mouse TNF, or a TNFR2-specific agonist called mSTAR (Rauert et al., 2010; Chopra et al., 2016) was measured. Naïve CD4 T cells were CTV labelled and the response measured by flow cytometry after stimulation with anti-CD3 in the presence of TNF or mSTAR (FIGS. 16 to 19).

naïve mouse CD8 T cells = experiment: Expansion of anti-CD3 activated naïve CD8 T cells (total cell numbers, CTV dilution by flow cytometry); format: cell-based; conditions: for receptor through which TNF co-stimulates CD8 T cells: CD8 T cells from WT, tnfr1−/− or tnfr2−/− mice, anti-CD3, TNF 5 ng/ml, 4 days
Method: as §1, §2, §3
Triplicate wells were harvested at each time point. To determine absolute cell numbers, the number of live cells per culture was estimated by reference to a known number of Calibrite beads (Becton Dickinson, San Jose, Calif.), added directly to cell culture before collecting. Dead cells were identified via uptake of propidium iodide (SigmaAldrich) added to culture before flow cytometry. Flow cytometry was performed on a BD FACS Canto II or Fortessa.
To determine if TNF co-stimulation was restricted to CD4 T cells, or could act on all effector cells from the T cell lineage, co-stimulation of naïve CD8 T cells by TNFα was measured. Naïve CTV labelled CD8 T cells were cultured in the presence of plate bound anti-CD3 with various concentrations of recombinant mouse TNFα and the response measured by flow cytometry.
Naïve CD8 T cells were isolated from WT mice and stimulated with combinations of anti-CD3, TNF and SMAC mimetics. The expansion of CD8 T cells was determined by measuring T cell numbers quantified relative to a known number of quantification beads via flow cytometry.

[1] = system: CD8 T cells deficient for TNFR2; experiment: Co-stimulation of anti-CD3 activated CD8 T cells deficient for TNFR2 (dilution of cell tracking dyes); format: cell-based, mouse; conditions: anti-CD3 10 μg/ml, mSTAR 5 ng/ml, 72 hours
Method: Data are representative examples of triplicate cultures.
(§4) All experiments were performed using C57BL/6 mice bred and maintained under specific pathogen-free conditions in the WEHI animal facilities (Parkville, Victoria, Australia) and used between 8-20 weeks of age. All experiments were performed under the approval of the WEHI Animal Ethics Committee. Tnfr1−/− and Tnfr2−/− mice were maintained at the WEHI.
as §1, with “82.9-98.2%. […]” for “82.9-98.2%.”
as §3, with “Recombinant murine TNF was purchased from R&D Systems (Minneapolis, Minn., USA). Recombinant mIL-2 was purchased from Peprotech. Smac-mimetics were purchased from Sellekchem, MA.” left out

mouse CD8 T cells = experiment: Cytokine bead array: IFNγ production by TCR activated CD8 T cells; format: cell-based; conditions: anti-CD3 10 μg/ml
Method: Supernatant was removed from T cell cultures at 48 hours and CBAs performed to measure IFNγ production. Data represent mean for duplicate samples. ND=none detected.
as §3
Supernatant from T cell cultures 48 hours after activation as described above were used to measure cytokine production (IL-2, IL-4, IL-6, IFN-γ, TNF, IL-17A and IL-10) using the Th1/Th2/Th17 BD Cytometric Bead Array (CBA) Kit (BD Bioscience). The CBA assay was performed according to manufacturer's instructions.
The effect of TNFR2 co-stimulation with TNF on the differentiation of TCR activated CD8 T cells was determined. […] This effect was synergised by the addition of smac-mimetics or IL-2 (FIG. 23).

tnfr1−/− CD4 T cells = experiment: Expansion of anti-CD3 activated CD4 T cells deficient for TNFR1; format: cell-based, mouse; conditions: anti-CD3 10 μg/ml, TNF 5 ng/ml, compared with WT CD4 T cells
Method: as §4
as §1, with “82.9-98.2%. […]” for “82.9-98.2%.”
as §3, with “Recombinant murine TNF was purchased from R&D Systems (Minneapolis, Minn., USA). Recombinant mIL-2 was purchased from Peprotech. Smac-mimetics were purchased from Sellekchem, MA.” left out, “proteins. […]” for “proteins.”
(§5) To determine the role of TNF receptors 1 (TNFR1) and 2 (TNFR2) as regulators of TNFα driven T cell co-stimulation, the response of T cells deficient for either TNFR1 or TNFR2 was measured. […]

tnfr2−/− CD4 T cells = experiment: Expansion of anti-CD3 activated CD4 T cells deficient for TNFR2; format: cell-based, mouse; conditions: anti-CD3 10 μg/ml, TNF 5 ng/ml
Method: as §4
as §1, with “82.9-98.2%. […]” for “82.9-98.2%.”
as §3, with “Recombinant murine TNF was purchased from R&D Systems (Minneapolis, Minn., USA). Recombinant mIL-2 was purchased from Peprotech. Smac-mimetics were purchased from Sellekchem, MA.” left out, “proteins. […]” for “proteins.”
as §5

[2] = anti-CD3 10 μg/ml, TNF 5 ng/ml or mSTAR 5 ng/ml, 72 hours

B1: mSTAR: TNFR2-specific agonist TNF mutein (Rauert et al., 2010; Chopra et al., 2016), SEQ ID NO:3, produced in HEK293 cells (protein)
chain: ACGCAAAPDIKDLLSRLEELEGLVSSLREQGGGGSLRSSSQNSSDKPVAHVVANHQVEEQLEWLSQRANALLANGMDLKDNQLVVPADGLYLVYSQVLFKGQGCPDYVLLTHTVSRFAISYQEKVNLLSAVKSPCPKDTPEGAELKPWYEPIYLGGVFQLEKGDQLSAEVNLPKYLNFRESGQVYFGVIALGGGGSLRSSSQNSSDKPVAHVVANHQVEEQLEWLSQRANALLANGMDLKDNQLVVPADGLYLVYSQVLFKGQGCPDYVLLTHTVSRFAISYQEKVNLLSAVKSPCPKDTPEGAELKPWYEPIYLGGVFQLEKGDQLSAEVNLPKYLNFRESGQVYFGVIALGGGGSLRSSSQNSSDKPVAHVVANHQVEEQLEWLSQRANALLANGMDLKDNQLVVPADGLYLVYSQVLFKGQGCPDYVLLTHTVSRFAISYQEKVNLLSAVKSPCPKDTPEGAELKPWYEPIYLGGVFQLEKGDQLSAEVNLPKYLNFRESGQVYFGVIAL
With B1 the “CD4 T cell response (dilution of cell tracking dyes, total cell numbers), TNF compared with mSTAR” value (naïve mouse CD4 T cells; [2]) was “can mimic TNF mediated CD4 T cell activation”, the “CD8 T cell response (dilution of cell division dyes, total cell numbers), mSTAR compared with TNF” value (naïve mouse CD8 T cells; [2]) was “can mimic TNF CD8 T cell activation” and the “T cell co-stimulation in CD8 T cells deficient for TNFR2” value [1] was “did not induce any T cell co-stimulation; also recorded: does not activate CD8 T cells in the absence of TNFR2”.

B2: IL-2: Recombinant mIL-2 purchased from Peprotech (protein, UniProt P04351 21-169, looked up)
Interleukin-2: APTSSSTSSSTAEAQQQQQQQQQQQQHLEQLLMDLQELLSRMENYRNLKLPRMLTFKFYLPKQATELKDLQCLEDELGPLRHVLDLTQSKSFQLEDAENFISNIRVTVVKLKGSDNTFECQFDDESATVVDFLRRWIAFCQSIISTSPQ
For B2, the “IFNγ production, effect of addition to TNF co-stimulation” value (mouse CD8 T cells; TNF 5 ng/ml with Smac-mimetic or IL-2, supernatant at 48 hours) was “synergised”.

B3: TNF: Recombinant murine TNF purchased from R&D Systems; wild type, not TNFR2-specific (protein)
chain: LRSSSQNSSDKPVAHVVANHQVEEQLEWLSQRANALLANGMDLKDNQLVVPADGLYLVYSQVLFKGQGCPDYVLLTHTVSRFAISYQEKVNLLSAVKSPCPKDTPEGAELKPWYEPIYLGGVFQLEKGDQLSAEVNLPKYLDFAESGQVYFGVIAL
With B3 the “receptor through which TNF co-stimulates CD4 T cells” value (naïve mouse CD4 T cells; CD4 T cells from WT, tnfr1−/− or tnfr2−/− mice, anti-CD3, TNF 5 ng/ml, 4 days) was “act exclusively through TNFR2; also recorded: co-stimulates CD4 T cells through TNFR2”, the “CD4 T cell expansion (total live cell number, dilution of cell division dyes)” value (naïve mouse CD4 T cells) was “promotes CD4 T cell division and expansion” and the “CD4 T cell expansion (total live cell number, dilution of cell division dyes)” value (naïve mouse CD4 T cells; listed as TNFα) was “significantly enhanced CD4 T cell expansion in a dose dependent manner”. The “receptor through which TNF co-stimulates CD8 T cells” value (naïve mouse CD8 T cells) was “co-stimulates CD8 T cells through TNFR2”, the “receptor through which TNF co-stimulates CD8 T cells” value (naïve mouse CD8 T cells; listed as TNFα) was “mediated exclusively by TNFR2” and the “CD8 T cell expansion (total CD8 T cell numbers, dilution of division tracking dyes)” value (naïve mouse CD8 T cells; plate bound anti-CD3 10 μg/ml, titrated doses of soluble recombinant TNF, over 4 days) was “potent co-stimulator of CD8 T cells; also recorded: potent co-stimulation factor to promote CD8 T cell division and expansion”. For the same molecule, the “response of tnfr1−/− CD4 T cells to TNF co-stimulation” value (tnfr1−/− CD4 T cells) was “indistinguishable from WT CD4 T cells”, the “co-stimulation of CD4 T cells in the absence of TNFR2” value (tnfr2−/− CD4 T cells) was “no co-stimulation” and the IFNγ production (mouse CD8 T cells; TNF 5 ng/ml, supernatant at 48 hours) was “significantly increased; also recorded: increases IFNγ production”.

Source: patent US20220193196A1, “Methods for Modulating T Cell Activation” (THE WALTER AND ELIZA HALL INSTITUTE OF MEDICAL RESEARCH, priority 2019, published 2022)
